Consider 6 molecules from patent publication US20230212319A1, “NOVEL ANTIGEN BINDING DOMAINS AND SYNTHETIC ANTIGEN RECEPTORS INCORPORATING THE SAME” (University of Southern California, priority 2020, published 2023).

Assay type in all cases: cell-based
One assay deals with RAJI cells. Nature of the assay: JNG assay, co-culture with RAJI cells. The settings on record: JNG cells expressing construct, co-culture with Raji. The gist of the method: (§1)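 Read-out is NFAT-driven GFP measured by flow cytometry after ~4–18 h co-culture of SAR-expressing JNG cells with target cells (E:T about 1:2). SARs were introduced by lentiviral spinfection and selected with puromycin or blasticidin when possible; scores (+/- to 5+ ≈ 5–50% GFP+) are relative to parental JNG cells.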

The test system of the next assay is L363 cells. Description: JNG assay, co-culture with L363 cells. To be noted: co-culture with L363. The essentials:
as §1

A further assay has as its system Nalm6 cells. Description: JNG assay, co-culture with Nalm6 cells. The settings on record: co-culture with Nalm6. The gist of the method: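 NFAT-driven GFP in stably SAR-transduced Jurkat cells after coculture (E:T ~1:2; ~4–18 h), measured by flow cytometry and expressed as % GFP+ cells over parental Jurkat-NFAT-GFP cells.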

B1: 22046 (protein)
chain: MALPVTALLLPLALLLHAARPQLQLQESGPGLVKPSETLSLTCTVSGDSISSGDYYWGWIRQPPGKGLEWIGHIYYSGVTYYNPSLKSRVTISVDTSRNQFSLKLSSVTAADTAVYYCTREDSSNWRSRGQGTLVTVSSLESGGGGSFEEVQLLESGGGLVQPGGSLRLSCAASGFTFSSYAMSWVRQAPGKGLEWVSSISGSGDYIYYADSVKGRFTISRDISKNTLYLQMNSLRAEDTAVYYCAKEGTGANSSLADYRGQGTLVTVSSTRDKTHTCPPCPAIPEDTFFPSPESSCDVKLVEKSFETDTNLNFQNLSVIGFRILLLKVAGFNLLMTLRLWSSRAKRSGSGVKQTLNFDLLKLAGDVESNPGPSRGHMTEYKPTVRLATRDDVPRAVRTLAAAFADYPATRHTVDPDRHIERVTELQELFLTRVGLDIGKVWVADDGAAVAVWTTPESVEAGAVFAEIGPRMAELSGSRLAAQQQMEGLLAPHRPKEPAWFLATVGVSPDHQGKGLGSAVVLPGVEAAERAGVPAFLETSAPRNLPFYERLGFTVTADVEVPEGPRTWCMTRKPGA
As for B1, the “NFAT-GFP ASSAY: Raji” value in the assay on RAJI cells is 2+ (refer to approximately 5%, 10%, 20%, 30%, 40% and 50% GFP positive cells). The “NFAT-GFP ASSAY: L363” value with L363 cells was “+ (refer to approximately 5%, 10%, 20%, 30%, 40% and 50% GFP positive cells)”. In addition, in the assay with Nalm6 cells, the “NFAT-GFP ASSAY: Nalm6” value is “+/- (refer to approximately 5%, 10%, 20%, 30%, 40% and 50% GFP positive cells)”.

B2: 22035 (protein)
chain: MALPVTALLLPLALLLHAARPQLQLQESGPGLVKPSETLSLTCTVSGDSISSGDYYWGWIRQPPGKGLEWIGHIYYSGVTYYNPSLKSRVTISVDTSRNQFSLKLSSVTAADTAVYYCTREDSSNWRSRGQGTLVTVSSLDSGGGGSFEQLQLQESGPGLVKPSETLSLTCTVSGGSISSGDYYWGWIRQPPGKGLEWIGHIYYSGATYYNPSLKSRVTISVDTSRNQFSLKLSSVTAADTAVYYCTRDDSSNWRSRGQGTLVTVSSTRIQNPDPAVYQLRDSKSSDKSVCLFTDFDSQTNVSQSKDSDVYITDKTVLDMRSMDFKSNSAVAWSNKSDFACANAFNNSIIPEDTFFPSPESSCDVKLVEKSFETDTNLNFQNLSVIGFRILLLKVAGFNLLMTLRLWSSRAKRSGSGVKQTLNFDLLKLAGDVESNPGPSRGHMTEYKPTVRLATRDDVPRAVRTLAAAFADYPATRHTVDPDRHIERVTELQELFLTRVGLDIGKVWVADDGAAVAVWTTPESVEAGAVFAEIGPRMAELSGSRLAAQQQMEGLLAPHRPKEPAWFLATVGVSPDHQGKGLGSAVVLPGVEAAERAGVPAFLETSAPRNLPFYERLGFTVTADVEVPEGPRTWCMTRKPGA
In the case of B2, in the assay with RAJI cells, the “NFAT-GFP ASSAY: Raji” value is “Raji (+/-), Nalm6 (+/-), L363 (+/-) (refer to approximately 5%, 10%, 20%, 30%, 40% and 50% GFP positive cells)”. In addition, in the assay on L363 cells, the “NFAT-GFP ASSAY: L363” value is “Raji (+/-), Nalm6 (+/-), L363 (+/-) (refer to approximately 5%, 10%, 20%, 30%, 40% and 50% GFP positive cells)”. Also, in the assay with Nalm6 cells, the “NFAT-GFP ASSAY: Nalm6” value is “Raji (+/-), Nalm6 (+/-), L363 (+/-) (refer to approximately 5%, 10%, 20%, 30%, 40% and 50% GFP positive cells)”.

B3: 22019 (protein)
chain: MALPVTALLLPLALLLHAARPLEGKPIPNPLLGLDSTGSGEDLKNVFPPEVAVFEPSKAEIAHTQKATLVCLATGFYPDHVELSWWVNGKEVHSGVCTDPQPLKEQPALNDSRYCLSSRLRVSATFWQNPRNHFRCQVQFYGLSENDEWTQDRAKPVTQIVSAEAWGRADCGITSASYHQGVLSATILYEILLGKATLYAVLVSALVLMAMVKRKDSRGRAKRSGSGATNFSLLKQAGDVEENPGPTSTMALPVTALLLPLALLLHAARPQLQLQESGPGLVKPSETLSLTCTVSGDSISSGDYYWGWIRQPPGKGLEWIGHIYYSGVTYYNPSLKSRVTISVDTSRNQFSLKLSSVTAADTAVYYCTREDSSNWRSRGQGTLVTVSSLESGGGGSFEVQLLESGGGLIQPGGSLRLSCAASGFTFSSHAMTWVRQAPGKGLEWVSAISGSGDYTHYADSVKGRFTISRDNSKNTVYLQMNSLRAEDSAVYYCAKDEDGGSLLGHRGQGTLVTVSSTREQKLISEEDGSGIQNPDPAVYQLRDSKSSDKSVCLFTDFDSQTNVSQSKDSDVYITDKCVLDMRSMDFKSNSAVAWSNKSDFACANAFNNSIIPEDTFFPSSDVPCDVKLVEKSFETDTNLNFQNLSVIGFRILLLKVAGFNLLMTLRLWSSRAKRSGSGVKQTLNFDLLKLAGDVESNPGPSRGHMTEYKPTVRLATRDDVPRAVRTLAAAFADYPATRHTVDPDRHIERVTELQELFLTRVGLDIGKVWVADDGAAVAVWTTPESVEAGAVFAEIGPRMAELSGSRLAAQQQMEGLLAPHRPKEPAWFLATVGVSPDHQGKGLGSAVVLPGVEAAERAGVPAFLETSAPRNLPFYERLGFTVTADVEVPEGPRTWCMTRKPGA
As for B3, the “NFAT-GFP ASSAY: Raji” value in the assay with RAJI cells was “+ (refer to approximately 5%, 10%, 20%, 30%, 40% and 50% GFP positive cells)”. Besides, the “NFAT-GFP ASSAY: L363” value in the assay with L363 cells is “+ (refer to approximately 5%, 10%, 20%, 30%, 40% and 50% GFP positive cells)”. Also, the “NFAT-GFP ASSAY: Nalm6” value in the assay on Nalm6 cells was “+/- (refer to approximately 5%, 10%, 20%, 30%, 40% and 50% GFP positive cells)”.

B4: 22021 (protein)
chain: MALPVTALLLPLALLLHAARPQLQLQESGPGLVKPSETLSLTCTVSGDSISSGDYYWGWIRQPPGKGLEWIGHIYYSGVTYYNPSLKSRVTISVDTSRNQFSLKLSSVTAADTAVYYCTREDSSNWRSRGQGTLVTVSSLESGGGGSFEEVQLLESGGGLVQPGGSLRLSCAASGFTFSSYAMSWVRQAPGKGLEWVSSISGSGDYIYYADSVKGRFTISRDISKNTLYLQMNSLRAEDTAVYYCAKEGTGANSSLADYRGQGTLVTVSSTRIQNPDPAVYQLRDSKSSDKSVCLFTDFDSQTNVSQSKDSDVYITDKCVLDMRSMDFKSNSAVAWSNKSDFACANAFNNSIIPEDTFFPSPESSCDVKLVEKSFETDTNLNFQNLSVIGFRILLLKVAGFNLLMTLRLWSSRAKRSGSGVKQTLNFDLLKLAGDVESNPGPSRGHMTEYKPTVRLATRDDVPRAVRTLAAAFADYPATRHTVDPDRHIERVTELQELFLTRVGLDIGKVWVADDGAAVAVWTTPESVEAGAVFAEIGPRMAELSGSRLAAQQQMEGLLAPHRPKEPAWFLATVGVSPDHQGKGLGSAVVLPGVEAAERAGVPAFLETSAPRNLPFYERLGFTVTADVEVPEGPRTWCMTRKPGA
As to B4, in the assay with RAJI cells, the “NFAT-GFP ASSAY: Raji” value is “Raji (+/-), Nalm6 (+/-), L363 (+/-) (refer to approximately 5%, 10%, 20%, 30%, 40% and 50% GFP positive cells)”. In the assay on L363 cells, the “NFAT-GFP ASSAY: L363” value is “Raji (+/-), Nalm6 (+/-), L363 (+/-) (refer to approximately 5%, 10%, 20%, 30%, 40% and 50% GFP positive cells)”. Besides, the “NFAT-GFP ASSAY: Nalm6” value with Nalm6 cells was “Raji (+/-), Nalm6 (+/-), L363 (+/-) (refer to approximately 5%, 10%, 20%, 30%, 40% and 50% GFP positive cells)”.

B5: 22049 (protein)
chain: MALPVTALLLPLALLLHAARPQLQLQESGPGLVKPSETLSLTCTVSGDSISSGDYYWGWIRQPPGKGLEWIGHIYYSGVTYYNPSLKSRVTISVDTSRNQFSLKLSSVTAADTAVYYCTREDSSNWRSRGQGTLVTVSSLEGQPKANPTVTLFPPSSEELQANKATLVCLISDFYPGAVTVAWKADGSPVKAGVETTKPSKQSNNKYAASSYLSLTPEQWKSHRSYSCQVTHEGSTVEKTVAPTECSPIKTDVITMDPKDNCSKDANDTLLLQLTNTSAYYMYLLLLLKSVVYFAIITCCLLRRTAFCCNGEKSRAKRSGSGATNFSLLKQAGDVEENPGPTSMDWIWRILFLVGAATGAHSFEVQLLESGGGLIQPGGSLRLSCAASGFTFSSHAMTWVRQAPGKGLEWVSAISGSGDYTHYADSVKGRFTISRDNSKNTVYLQMNSLRAEDSAVYYCAKDEDGGSLLGHRGQGTLVTVSSTRASTKGPSVFPLAPSSKSTSGGTAALGCLVKDYFPEPVTVSWNSGALTSGVHTFPAVLQSSGLYSLSSVVTVPSSSLGTQTYICNVNHKPSNTKVDKRVEPKSCEVKTDSTDHVKPKETENTKQPSKSCHKPKAIVHTEKVNMMSLTVLGLRMLFAKTVAVNFLLTAKLFFLRAKRSGSGVKQTLNFDLLKLAGDVESNPGPSRGHMTEYKPTVRLATRDDVPRAVRTLAAAFADYPATRHTVDPDRHIERVTELQELFLTRVGLDIGKVWVADDGAAVAVWTTPESVEAGAVFAEIGPRMAELSGSRLAAQQQMEGLLAPHRPKEPAWFLATVGVSPDHQGKGLGSAVVLPGVEAAERAGVPAFLETSAPRNLPFYERLGFTVTADVEVPEGPRTWCMTRKPGA
Turning to B5, the “NFAT-GFP ASSAY: L363” value in the assay with L363 cells was “+/- (refer to approximately 5%, 10%, 20%, 30%, 40% and 50% GFP positive cells)”. Further, the “NFAT-GFP ASSAY: Nalm6” value with Nalm6 cells was “+/- (refer to approximately 5%, 10%, 20%, 30%, 40% and 50% GFP positive cells)”.

B6: 22047 (protein)
chain: MALPVTALLLPLALLLHAARPQLQLQESGPGLVKPSETLSLTCTVSGDSISSGDYYWGWIRQPPGKGLEWIGHIYYSGVTYYNPSLKSRVTISVDTSRNQFSLKLSSVTAADTAVYYCTREDSSNWRSRGQGTLVTVSSLEDKTHTCPPCPAPIKTDVITMDPKDNCSKDANDTLLLQLTNTSAYYMYLLLLLKSVVYFAIITCCLLRRTAFCCNGEKSRAKRSGSGATNFSLLKQAGDVEENPGPTSMDWIWRILFLVGAATGAHSFEVQLLESGGGLIQPGGSLRLSCAASGFTFSSHAMTWVRQAPGKGLEWVSAISGSGDYTHYADSVKGRFTISRDNSKNTVYLQMNSLRAEDSAVYYCAKDEDGGSLLGHRGQGTLVTVSSTRIQNPDPAVYQLRDSKSSDKSVCLFTDFDSQTNVSQSKDSDVYITDKCVLDMRSMDFKSNSAVAWSNKSDFACANAFNNSIIPEDTFFPSPESSCDVKLVEKSFETDTNLNFQNLSVIGFRILLLKVAGFNLLMTLRLWSSRAKRSGSGVKQTLNFDLLKLAGDVESNPGPSRGHMTEYKPTVRLATRDDVPRAVRTLAAAFADYPATRHTVDPDRHIERVTELQELFLTRVGLDIGKVWVADDGAAVAVWTTPESVEAGAVFAEIGPRMAELSGSRLAAQQQMEGLLAPHRPKEPAWFLATVGVSPDHQGKGLGSAVVLPGVEAAERAGVPAFLETSAPRNLPFYERLGFTVTADVEVPEGPRTWCMTRKPGA
On to B6, for which, in the assay on L363 cells, the “NFAT-GFP ASSAY: L363” value was “+/- (refer to approximately 5%, 10%, 20%, 30%, 40% and 50% GFP positive cells)”. Moreover, in the assay with Nalm6 cells, the “NFAT-GFP ASSAY: Nalm6” value is “+/- (refer to approximately 5%, 10%, 20%, 30%, 40% and 50% GFP positive cells)”.
